Measurements: paper PMC4142084 (Molecular cell, 2014)

Biological target: the molecule itself
Experiment: cross-linking

Protein	stoichiometry N
purified recombinant FLAG-6PGD (6-phosphogluconate dehydrogenase) WT (enzyme, human, background lysine acetylation; acetylation at K76 and K294 increased after incubation with lysates of NAM+TSA-treated H1299 cells) MAQADIALIGLAVMGQNLILNMNDHGFVVCAFNRTVSKVDDFLANEAKGTKVVGAQSLKEMVSKLKKPRRIILLVKAGQAVDDFIEKLVPLLDTGDIIIDGGNSEYRDTTRRCRDLKAKGILFVGSGVSGGEEGARYGPSLMPGGNKEAWPHIKTIFQGIAAKVGTGEPCCDWVGDEGAGHFVKMVHNGIEYGDMQLICEAYHLMKDVLGMAQDEMAQAFEDWNKTELDSFLIEITANILKFQDTDGKHLLPKIRDSAGQKGTGKWTAISALEYGVPVTLIGEAVFARCLSSLKDERIQASKKLKGPQKFQFDGDKKSFLEDIRKALYASKIISYAQGFMLLRQAATEFGWTLNYGGIALMWRGGCIIRSVFLGKIKDAFDRNPELQNLLLDDFFKSAVENCQDSWRRAVSTGVQAGIPMPCFTTALSFYDGYRHEMLPASLIQAQRDYFGAHTYELLAKPGQFIHTNWTGHGGTVSSSSYNA	2
purified recombinant FLAG-6PGD K76R (enzyme, human, acetylation at K294 increased after incubation with lysates of NAM+TSA-treated H1299 cells) MAQADIALIGLAVMGQNLILNMNDHGFVVCAFNRTVSKVDDFLANEAKGTKVVGAQSLKEMVSKLKKPRRIILLVRAGQAVDDFIEKLVPLLDTGDIIIDGGNSEYRDTTRRCRDLKAKGILFVGSGVSGGEEGARYGPSLMPGGNKEAWPHIKTIFQGIAAKVGTGEPCCDWVGDEGAGHFVKMVHNGIEYGDMQLICEAYHLMKDVLGMAQDEMAQAFEDWNKTELDSFLIEITANILKFQDTDGKHLLPKIRDSAGQKGTGKWTAISALEYGVPVTLIGEAVFARCLSSLKDERIQASKKLKGPQKFQFDGDKKSFLEDIRKALYASKIISYAQGFMLLRQAATEFGWTLNYGGIALMWRGGCIIRSVFLGKIKDAFDRNPELQNLLLDDFFKSAVENCQDSWRRAVSTGVQAGIPMPCFTTALSFYDGYRHEMLPASLIQAQRDYFGAHTYELLAKPGQFIHTNWTGHGGTVSSSSYNA	2
